Our source for the EC50 values is patent publication EP4606822A1 (MULTITUDE THERAPEUTICS INC., dated 2024).

For orientation: EC50 means the midpoint of the concentration-response curve. A higher EC50 goes with weaker potency.

In experiment [1] the target is T1, HER3 on human tumor cell lines (human, UniProt P21860 20-1342).
T1 construct: whole, on cells; The immunogen was the human HER3 extracellular domain (NM_001982.4, positions 20-643), but the flow cytometry assays used endogenous HER3 on cells; also called HER3 protein
T1 sequence (P21860 20-1342): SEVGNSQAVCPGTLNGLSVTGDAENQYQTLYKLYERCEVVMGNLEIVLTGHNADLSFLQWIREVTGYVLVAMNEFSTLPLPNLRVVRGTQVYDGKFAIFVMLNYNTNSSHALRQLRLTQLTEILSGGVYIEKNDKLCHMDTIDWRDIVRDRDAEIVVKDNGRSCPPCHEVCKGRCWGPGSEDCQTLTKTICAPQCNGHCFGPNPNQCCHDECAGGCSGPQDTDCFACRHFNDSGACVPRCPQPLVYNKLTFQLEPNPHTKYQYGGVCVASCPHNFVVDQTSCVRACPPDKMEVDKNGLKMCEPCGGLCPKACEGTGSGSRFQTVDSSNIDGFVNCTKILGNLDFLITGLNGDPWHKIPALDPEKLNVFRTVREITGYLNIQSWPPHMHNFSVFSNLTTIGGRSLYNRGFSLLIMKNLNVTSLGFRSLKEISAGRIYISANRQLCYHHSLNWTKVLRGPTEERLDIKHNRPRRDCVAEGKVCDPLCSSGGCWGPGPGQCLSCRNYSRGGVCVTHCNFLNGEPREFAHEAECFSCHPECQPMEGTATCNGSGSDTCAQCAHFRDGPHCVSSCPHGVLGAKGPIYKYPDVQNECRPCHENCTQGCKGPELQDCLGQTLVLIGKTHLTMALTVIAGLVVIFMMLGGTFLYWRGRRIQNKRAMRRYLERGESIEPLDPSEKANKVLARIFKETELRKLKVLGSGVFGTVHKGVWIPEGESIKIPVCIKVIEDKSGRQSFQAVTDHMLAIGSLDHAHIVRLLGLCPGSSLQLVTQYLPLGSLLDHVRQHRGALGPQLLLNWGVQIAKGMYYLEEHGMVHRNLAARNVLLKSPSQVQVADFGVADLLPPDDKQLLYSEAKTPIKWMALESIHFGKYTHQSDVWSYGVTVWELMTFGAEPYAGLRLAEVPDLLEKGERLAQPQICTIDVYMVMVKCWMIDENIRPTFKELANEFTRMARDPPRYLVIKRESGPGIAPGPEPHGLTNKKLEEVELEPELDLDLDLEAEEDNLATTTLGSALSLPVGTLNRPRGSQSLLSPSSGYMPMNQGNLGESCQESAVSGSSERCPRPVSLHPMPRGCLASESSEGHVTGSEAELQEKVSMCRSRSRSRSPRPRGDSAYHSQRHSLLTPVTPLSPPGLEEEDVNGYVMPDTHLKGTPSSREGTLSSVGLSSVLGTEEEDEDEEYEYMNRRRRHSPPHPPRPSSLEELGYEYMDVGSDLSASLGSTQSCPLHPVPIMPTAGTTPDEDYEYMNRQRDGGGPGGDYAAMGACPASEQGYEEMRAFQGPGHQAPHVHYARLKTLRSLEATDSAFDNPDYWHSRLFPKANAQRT
Briefly: flow cytometry on SW620 cells. On the technique in general: A flow cytometer gives signals particle by particle.

For experiment [2], the target named is T1, HER3 on human tumor cell lines. Briefly: flow cytometry on MDA-MB-453 cells.

B1: humanized 4O3 antibody L2H4 (antibody, human IgG1, kappa, V domains shown)
VH: QVQLQESGPGLVKPSQTLSLTCTVSGISITTGNYRWSWIRQHPGKKLEWIGNIYYSGAITYNPSLKSRVTISRDTSKNQFFLKLSSVTAADTAVYYCARDGGTVVEGWYFDVWGKGTTVTVSS
VL: EIVLTQSPDTQSVTPKEKVTITCRASQSISDYLHWYQQKPDQSPKLLIKYASQSISGVPSRFSGSGSGTDFTLTINSLEAEDVGLYYCQSGRSFPLTFGGGTKVEIKR
notes: also called Hu4O3
In experiment [1], B1 yielded an EC50 of 1200 nM.

B2: humanized 4O3 antibody L1H5 (antibody, human IgG1, kappa)
heavy: not shown
light: EIVLTQSPDTQSVTPKEKVTITCRASQSISDYLHWYQQKPDQSPKLLIKYASQSISGVPSRFSGSGSGTDFTLTINSLEAEDAATYYCQSGRSFPLTFGGGTKVEIKRTVAAPSVFIFPPSDEQLKSGTASVVCLLNNFYPREAKVQWKVDNALQSGNSQESVTEQDSKDSTYSLSSTLTLSKADYEKHKVYACEVTHQGLSSPVTKSFNRGEC
notes: also called Hu4O3 (L1H5); Hu4O3
B2: the EC50 in experiment [1] turned out to be 147 nM; in experiment [2], 122 nM.

B3: humanized 4O3 antibody L4H4 (antibody, human IgG1, kappa, V domains shown)
VH: QVQLQESGPGLVKPSQTLSLTCTVSGISITTGNYRWSWIRQHPGKKLEWIGNIYYSGAITYNPSLKSRVTISRDTSKNQFFLKLSSVTAADTAVYYCARDGGTVVEGWYFDVWGKGTTVTVSS
VL: EIVLTQSPDTQSVTPKEKVTITCRASQSISDYLHWYQQKPGQAPKLLIKYASQSISGVPSRFSGSGSGTDFTLTINSLEAEDFGLYYCQSGRSFPLTFGGGTKVEIKR
notes: also called Hu4O3
With B3, the response in experiment [1] was half-maximal at 90 nM (EC50). That is a double-digit nanomolar value.

B4: humanized 4O3 antibody L1H4 (antibody, human IgG1, kappa)
heavy: not shown
light: EIVLTQSPDTQSVTPKEKVTITCRASQSISDYLHWYQQKPDQSPKLLIKYASQSISGVPSRFSGSGSGTDFTLTINSLEAEDAATYYCQSGRSFPLTFGGGTKVEIKRTVAAPSVFIFPPSDEQLKSGTASVVCLLNNFYPREAKVQWKVDNALQSGNSQESVTEQDSKDSTYSLSSTLTLSKADYEKHKVYACEVTHQGLSSPVTKSFNRGEC
notes: also called Hu4O3
Consider B4, for which the EC50 was 194 nM in experiment [1] and 71.5 nM in experiment [2].

B5: humanized 4O3 antibody L4H7 (antibody, human IgG1, kappa, V domains shown)
VH: QVQLQESGPGLVKPSQTLSLTCTVSGISITTGNYRWSWIRQPPGKGLEWIGYIYYSGAITYNPSLKSRVTISRDTSKNQFSLQLRSVTAADTAVYYCARDGGTVVEGWYFDVWGQGTTVTVSS
VL: EIVLTQSPDTQSVTPKEKVTITCRASQSISDYLHWYQQKPGQAPKLLIKYASQSISGVPSRFSGSGSGTDFTLTINSLEAEDFGLYYCQSGRSFPLTFGGGTKVEIKR
notes: also called Hu4O3
B5 showed an EC50 in experiment [1] of 21.9 nM.
